We go through 94 variants from the supplement of paper PMC10567573.

The labels stand for the following.
B1: TBX5 (parent)
chain: YQNHKITQLKIENNPFAKGFRGSD
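Also: lentivirally expressed fusions sorted by FACS into six bins by GFP to DsRed ratio, PSI derived from sequencing read proportions per bin multiplied by bin number.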

Variants of B1 are the subject of the data set. The experiment in a line: protein stability index of a GFP-peptide fusion (GPS, HEK-293T) (PSI 1-6); higher = more stable. The conditions noted are these: c terminus: a fixed tail appended.
Regarding YQNHKITQLKIENNPFAKGFRPSD [G22P], the protein stability index is 3.32.

With YQNHKITQLKIENNPFAKGFRESD [G22E], the protein stability index worked out at 2.33.

On to YQNHKITQLKIENNPFAKGFRCSD [G22C], for which the protein stability index came to 2.24.

For the variant YQNHKITQLKIENNPFAKGFRWSD [G22W], the protein stability index is 1.76.

Consider YQNHKITQLKIENNPFAKGFRKSD [G22K], for which the protein stability index is 2.49.

As to YQNHKITQLKIENNPFAKGFRMSD [G22M], the protein stability index stood at 2.49.

As to YQNHKITQLKIENNPFAKGFEGSD [R21E], the protein stability index is 2.58.

Take YQNHKITQLKIENNPFAKGFAGSD [R21A]: the protein stability index came out at 2.32.

In the case of YQNHKITQLKIENNPFAKGFQGSD [R21Q], the protein stability index was 2.57.

With YQNHKITQLKIENNPFAKGFWGSD [R21W], the protein stability index is 1.8.

With YQNHKITQLKIENNPFAKGFKGSD [R21K], the protein stability index turned out to be 2.64.

Regarding YQNHKITQLKIENNPFAKGFMGSD [R21M], the protein stability index amounted to 2.55.

For YQNHKITQLKIENNPFAKGFHGSD [R21H], the protein stability index was 2.52.

Regarding YQNHKITQLKIENNPFAKGFCGSD [R21C], the protein stability index turned out to be 2.34.

For the variant YQNHKITQLKIENNPFAKGFGGSD [R21G], the protein stability index turned out to be 2.46.

On to YQNHKITQLKIENNPFAKGFPGSD [R21P], for which the protein stability index was 2.74.

In the case of YQNHKITQLKIENNPFAKGFFGSD [R21F], the protein stability index was determined as 2.89.

Consider YQNHKITQLKIENNPFAKGFLGSD [R21L], for which the protein stability index is 2.15.

In the case of YQNHKITQLKIENNPFAKGFDGSD [R21D], the protein stability index turned out to be 2.95.

Consider YQNHKITQLKIENNPFAKGFTGSD [R21T], for which the protein stability index worked out at 2.44.

Consider YQNHKITQLKIENNPFAKGFVGSD [R21V], for which the protein stability index worked out at 2.51.

As to YQNHKITQLKIENNPFAKGFYGSD [R21Y], the protein stability index came out at 2.96.

YQNHKITQLKIENNPFAKGFNGSD [R21N]: the protein stability index stood at 2.61.

Regarding YQNHKITQLKIENNPFAKGFSGSD [R21S], the protein stability index is 2.76.

YQNHKITQLKIENNPFAKGFIGSD [R21I]: the protein stability index turned out to be 2.19.

As to YQNHKITQLKIENNPFAKGFRGSF [D24F], the protein stability index was found to be 1.95.

On to YQNHKITQLKIENNPFAKGFRGSS [D24S], for which the protein stability index was 2.14.

Regarding YQNHKITQLKIENNPFAKGFRGSW [D24W], the protein stability index stood at 1.32.

Take YQNHKITQLKIENNPFAKGFRGSN [D24N]: the protein stability index turned out to be 2.57.

Consider YQNHKITQLKIENNPFAKGFRGSK [D24K], for which the protein stability index was 2.53.

Turning to YQNHKITQLKIENNPFAKGFRGSE [D24E], the protein stability index came out at 2.64.

As to YQNHKITQLKIENNPFAKGFRGSV [D24V], the protein stability index was determined as 1.83.

Turning to YQNHKITQLKIENNPFAKGFRGSC [D24C], the protein stability index is 2.25.

As for YQNHKITQLKIENNPFAKGFRGST [D24T], the protein stability index was determined as 2.11.

Consider YQNHKITQLKIENNPFAKGFRGSM [D24M], for which the protein stability index turned out to be 2.43.

With YQNHKITQLKIENNPFAKGFRGSH [D24H], the protein stability index was 1.99.

As for YQNHKITQLKIENNPFAKGFRGSI [D24I], the protein stability index came to 2.08.

As for YQNHKITQLKIENNPFAKGFRGSP [D24P], the protein stability index amounted to 2.39.

Consider YQNHKITQLKIENNPFAKGFRGSL [D24L], for which the protein stability index turned out to be 1.95.

On to YQNHKITQLKIENNPFAKGFRGSG [D24G], for which the protein stability index turned out to be 2.39.

On to YQNHKITQLKIENNPFAKGFRGSA [D24A], for which the protein stability index stood at 2.43.

As for YQNHKITQLKIENNPFAKGFRGSR [D24R], the protein stability index was 2.69.

As to YQNHKITQLKIENNPFAKGFRGSQ [D24Q], the protein stability index was 1.88.

As to YQNHKITQLKIENNPFAKGFRGSY [D24Y], the protein stability index was 2.04.

As for YQNHKITQLKIENNPFAKGDRGSD [F20D], the protein stability index is 3.41.

Turning to YQNHKITQLKIENNPFAKGNRGSD [F20N], the protein stability index came to 3.28.

As for YQNHKITQLKIENNPFAKGGRGSD [F20G], the protein stability index came to 2.98.

Consider YQNHKITQLKIENNPFAKGARGSD [F20A], for which the protein stability index was found to be 3.41.

Regarding YQNHKITQLKIENNPFAKGIRGSD [F20I], the protein stability index amounted to 2.47.

In the case of YQNHKITQLKIENNPFAKGKRGSD [F20K], the protein stability index is 3.11.

In the case of YQNHKITQLKIENNPFAKGHRGSD [F20H], the protein stability index came out at 3.27.

For YQNHKITQLKIENNPFAKGWRGSD [F20W], the protein stability index stood at 2.73.

On to YQNHKITQLKIENNPFAKGVRGSD [F20V], for which the protein stability index turned out to be 2.63.

Consider YQNHKITQLKIENNPFAKGPRGSD [F20P], for which the protein stability index was determined as 2.88.

For the variant YQNHKITQLKIENNPFAKGMRGSD [F20M], the protein stability index was determined as 2.69.

Turning to YQNHKITQLKIENNPFAKGCRGSD [F20C], the protein stability index was determined as 2.85.

For YQNHKITQLKIENNPFAKGTRGSD [F20T], the protein stability index was found to be 3.04.

Consider YQNHKITQLKIENNPFAKGERGSD [F20E], for which the protein stability index is 3.56.

Consider YQNHKITQLKIENNPFAKGLRGSD [F20L], for which the protein stability index turned out to be 2.79.

With YQNHKITQLKIENNPFAKGSRGSD [F20S], the protein stability index amounted to 3.23.

Turning to YQNHKITQLKIENNPFAKGYRGSD [F20Y], the protein stability index came out at 2.49.

For YQNHKITQLKIENNPFAKGRRGSD [F20R], the protein stability index was 3.02.

Consider YQNHKITQLKIENNPFAKGQRGSD [F20Q], for which the protein stability index stood at 3.19.

Turning to YQNHKITQLKIENNPFAKQFRGSD [G19Q], the protein stability index amounted to 3.1.

As for YQNHKITQLKIENNPFAKSFRGSD [G19S], the protein stability index was determined as 2.76.

For YQNHKITQLKIENNPFAKVFRGSD [G19V], the protein stability index came out at 2.31.

For YQNHKITQLKIENNPFAKWFRGSD [G19W], the protein stability index was found to be 1.88.

With YQNHKITQLKIENNPFAKRFRGSD [G19R], the protein stability index was determined as 2.22.

Turning to YQNHKITQLKIENNPFAKLFRGSD [G19L], the protein stability index stood at 2.05.

Consider YQNHKITQLKIENNPFAKNFRGSD [G19N], for which the protein stability index worked out at 2.19.

Take YQNHKITQLKIENNPFAKTFRGSD [G19T]: the protein stability index was determined as 2.53.

Consider YQNHKITQLKIENNPFAKYFRGSD [G19Y], for which the protein stability index is 2.36.

In the case of YQNHKITQLKIENNPFAKMFRGSD [G19M], the protein stability index was 2.29.

As to YQNHKITQLKIENNPFAKPFRGSD [G19P], the protein stability index is 2.85.

Turning to YQNHKITQLKIENNPFAKKFRGSD [G19K], the protein stability index is 2.59.

Take YQNHKITQLKIENNPFAKGFRGAD [S23A]: the protein stability index is 2.25.

In the case of YQNHKITQLKIENNPFAKGFRGWD [S23W], the protein stability index is 2.02.

Take YQNHKITQLKIENNPFAKGFRGPD [S23P]: the protein stability index amounted to 2.55.

On to YQNHKITQLKIENNPFAKGFRGYD [S23Y], for which the protein stability index turned out to be 2.55.

In the case of YQNHKITQLKIENNPFAKGFRGID [S23I], the protein stability index is 2.12.

As for YQNHKITQLKIENNPFAKGFRGDD [S23D], the protein stability index came to 2.83.

On to YQNHKITQLKIENNPFAKGFRGLD [S23L], for which the protein stability index was determined as 2.11.

As for YQNHKITQLKIENNPFAKGFRGMD [S23M], the protein stability index is 2.18.

For YQNHKITQLKIENNPFAKGFRGFD [S23F], the protein stability index was 1.92.

As for YQNHKITQLKIENNPFAKGFRGQD [S23Q], the protein stability index came out at 2.71.

Regarding YQNHKITQLKIENNPFAKGFRGKD [S23K], the protein stability index came to 2.64.

For YQNHKITQLKIENNPFAKGFRGRD [S23R], the protein stability index came out at 2.63.

Turning to YQNHKITQLKIENNPFAKGFRGTD [S23T], the protein stability index stood at 2.3.

On to YQNHKITQLKIENNPFAKGFRGED [S23E], for which the protein stability index worked out at 2.42.

As to YQNHKITQLKIENNPFAKGFRGVD [S23V], the protein stability index was 2.35.

In the case of YQNHKITQLKIENNPFAKGFRGHD [S23H], the protein stability index was found to be 2.47.

On to YQNHKITQLKIENNPFAKGFRGGD [S23G], for which the protein stability index came to 2.59.

For YQNHKITQLKIENNPFAKGFRGND [S23N], the protein stability index was determined as 2.39.

For YQNHKITQLKIENNPFAKGFRGCD [S23C], the protein stability index was 2.49.
